Experimental data published in the DeepSol protein solubility set.

test: soluble on expression in E. coli; label from the status in PepcDB or PDB records

| Sequence | soluble on expression in E. coli |
| --- | --- |
| MFVTLEVSDRAPLEATMSTPHHPVAIIGGGLGGLTAARVLHVNGIESAVFDLESGPEARTQGGMLDIHEENGQEAIRAAGLHDEFREIIHEGGQAMRLVGPDGTVRVATEDQGDGGRPEVDRGDLRGLLLNSLPDGTVHWRHKATGARALDDGRHEVTFADGSALTTDLLIGADGAWSRIRPLLSDAEPAYTGISFVESDLHEADTRHPRSAALVGGGFFISLGDRRGFLAHRETDGSLHVYTALRADEGWIDTVDFTDHAAAKAAVLAHFDGWDEGLRSLVAHAETITPRRIHALPVGHRWKRTPGVTLLGDAAHLMSPFAGEGANLAMYDGAELALALAAHPGDTEAALTQYEEGLFPRSEASAVESAGSLDTMFGTDGLEQMIGFFGAGRAEALEHHHHHH | not soluble |
| MGAFDRVKAQVASDSKWTSAPYKGFVAGSPSNTYIDIVSTAFEDATNTMNFARHSKYDEMYSPYLGSFRERHNYTSIAPSLCINKTNRAIEYDLAPHKAYNPRQSEWLLEKDKKYRVRGARNLIYTKSASDISLPPLTRRTFTVPTDTLRHQNQFLYWNGRALGLDYVAPFLRREDYSRHEDRRYQRIYWSPHFIDLLPSCRHSAHLMLSAY | not soluble |
| MGAGPSDHRAITLEGTTVMVPVYNSTAQQSPYQLTTTADGGVALHHQGELTTTLETPPEPHFYNLQTAESIPYKAIALLHGKDVLATTLQQTCIRFRDRSESCQFCAIEQSLTSGQTIVRKTPEQVAEVVAAAVRLDGVRQLVMTTGTPNSRDRGARLMAETAAAVKAVVDIPIQAQCEPPDDPVWFSRMKAAGVNSLGMHLEVVEPEVRRRILPGKSELTLEHYYRAFEQAVAVFGRGEVSTYLLAGLGDSADSLIDCSRRLIAIGVYPFIVPFVPIAGTPLERHPAPTTAFMLQIYEAVGALLHDSDLRSAAMSAGLEHHHHHH | not soluble |
| MGAIKPLEDWLKNLGVKSDIRPNLLAGMEINDQICSVPLQTSNIGILERSKLFQAAGITEPPKTWEELRAVVKKSTIDKNGDHRPEQYGMLLTFGKGGWTVFSWLPFLFAAQGEIITDHYPSLSNPGAITALQFW | not soluble |
| MGALESLRGNADLAYILSMEPCGHCLIINNVNFCRESGLRTRTGSNIDCEKLRRRFSSLHFMVEVKGDLTAKKMVLALLELARQDHGALDCCVVVILSHGCQASHLQFPGAVYGTDGCPVSVEKIVNIFNGTSCPSLGGKPKLFFIQACGGEQKDHGFEVASTSPEDESPGSNPEPDATPFQEGLRTFDQLDAISSLPTPSDIFVSYSTFPGFVSWRDPKSGSWYVETLDDIFEQWAHSEDLQSLLLRVANAVSVKGIYKQMPGCFNFLRKKLFFKTSHHHHHH | soluble |
| MGAMIVKEVYETAEKIKSMEIRGAGRIARAAAQALMIQAEKSKAKEPEELWNELKVASKILYNTRPTAVSLPNALRYVMHRVKAAYLGGADLETLRFTAINSAKEFIYNSEKAIERIGEIGAKRIEDGDIIMTHCHSKAAISVMKKAFEQGKNIKVIVTETRPKWQGKITAKELASYGIPVIYIVDSAARHYMKMTDKVVMGADSITANGAVINKIGTSLIALTAKEHRVWVMIAAETYKFHPATMLGQLVEIEMRDPTEVIPEEELRTWPKNIEVWNPAFDVTPPEYIDVIITERGIIPPYAAIDILKEEFGWALKYKEPWED | soluble |
| MGATGSSQLEKEISTTESVNNANEHYYGLVNALFFCRPFREKVLNYKQTLKKSGASKDNLVTCLADLFHSIASQKRRVGTIAPKRFITKLKKENELFDNYMQQDAHEFFNYLINTISETLIQEKIAEREKASRHGTLKKGNVTVNLAPATAGLPRSDEKGTSERNGGITVEGNEFLNKSDTTTWIHEIFQGILTNETRCLSCETVSSKDEDFLDLSIDVEQNTSISHCLRVFSETETLCGDQKYFCETCSSKQEAQKRMRIKKPPQLLALHLKRFKFVEPLNRHTKLSYRVVFPLELRLFNVSDDAEYGDRMYDLVATVVHCGATPNRGHYITLVKSNSFWLVFDDDIVEKLEVSSMEEFSGMSTDANIQMPPGNQSAPQKEFRICLYSVLSGKRLRC | not soluble |
| MGCLATPVRTEVLKALEYSQRICALRSCSRFIRSPRAMFKRQHTDADVLEHPVSASAPATWSLIGEHTDHAGGVVLMSVAQLRTHVEATTRADDIVSVDYYIADPEMPVQQSAISLSDVFEWQNSLSGDHEPLESP | not soluble |
| MGDIMQQQLTQALEAYLQKLDDEARIEAINAFRQVLHHYSPFRSQPVDCVLWVKQELVAPNDYNPNNVAPPEKRLLQTSLEADGFTQPVVVIQQRPQAYTIVDGFHRHELACSKAALKKTLKGYLPVTCLTSEAASRDGLMAATIRHNRARGRHQIHAMSEIVRELTQLGWTPQKIGKELGMDADEVLRLKQISGLTEMFAGRQFSQAWTIK | not soluble |
| MGDLKDGTYKLEEKNEKNGYRAVFEMTVKDGKITESKYDNINADGKSKTEDTKYEESMKAKSGVGPKEYIKQLNDSFVKAQSASGVEVVTGATHSSESFQNYAQQLIQAAQAGNTDTIEIDNGATLKDGTYSLKEKNDSNGYHTTFSMTVKDGKVTESNYDNVNADGKSKKDDTEYESKMKDVAGVGPKEYIETLNKEFVKAMGEEDGSPAGVEVVTGATHSTHSFINYAQQLVNAAEKGDTTEIVVDNIVTKLEHHHHHH | soluble |
| MGEEEESLAILRRHVMNELLDTERAYVEELLCVLEGYAAEMDNPLMAHLISTGLQNKKNILFGNMEEIYHFHNRIFLRELESCIDCPELVGRCFLERMEEFQIYEKYCQNKPRSESLWRQCSDCPFFQECQKKLDHKLSLDSYLLKPVQRITKYQLLLKEMLKYSKHCEGAEDLQEALSSILGILKAVNDSMHLIAITGYDGNLGDLGKLLMQGSFSVWTDHKKGHTKVKELARFKPMQRHLFLHEKAVLFCKKREENGEGYEKAPSYSYKQSLNMTAVGITENVKGDTKKFEIWYNAREEVYIIQAPTPEIKAAWVNAIRKVLTSQLQACREASQHRALEQSHSLEHHHHHH | soluble |
| MGEEILTERNQLSRQDASCFRSPRSPLGRTDDAFFELDDDDDLSSPSVPGSPVDPPSISVPLPPKSAPPCPTQPAPLTNGDLYPTILSNGTPIPNGRITPALSTVSVSLIHEARLQQSLSTPCNGSEEEMHNGQVRKESEYRRFKSEGSTAGASLPAAEKTHMDELSPVDQRSTSGTARFLIQQDSVVNPSTKMSNTEQVAMMHTLKTKLSKYQAMMDKAFEEIAKVEDANIIEGCTIVRKLMRKVWNTPKVSADLANALCDYLRDRDYFDKLIKMFISPNTAACDQVRMECGKVLEECTSSANLEYIVNKSYTKKIMIVAMKLNKTPDQQRLSLSLIGNLFKHSNAVSLSLIETDVIDHIILTFKRAPECPDILRHAALALANILLYTCFEGKKKIIQKKIPEWLFFLASQADDVTRYYACIAVCTIVSVKEFEPLVRKSDTMKLVEPFLQVHDPATFARDYHKYAQGNTKEWLERLLPMLQPSRRREARSVAAFHFTLEATIKKEQNKLDVFQEIGAIQALKEVASSPDEVAAKFASEALTVIGEEVPYKLAQQVPGWTCADVQYWVKKIGFEEYVEKFAKQMVDGDLLLQLTENDLKHDVGMISGLHRKRFLRELQTLKVAADYSSVDESNLDNFLMGLSPELSVYTYQMLTNGVNRSLLSSLTDEMMQNACGITNPIHRLKLTQAFETAKHPDDVEVAMLSKQIDVFISYRRSTGNQLASLIKVLLQLRGYRVFIDVDKLYAGKFDSSLLKNIQAAKHFILVLTPNSLDRLLNDDNCEDWVHKELKCAFEHQKNIIPIFDTAFEFPTKEDQIPNDIRMITKYNGVKWVHDYQDACMAKVVRFITGELNRTTPTTKEMPSISRKTTQQRWQTTNTVSRTGPSRSIGGPRMEPPTPTFFSVTPTGSQERATSTRRKIQPSASTTSDRN | not soluble |
| MGEETIAAIATGAGEGGIGIVRISGADALQVAERIFRPRRGRPLGCRRSHTVTYGWVVTPGGDRIDEALALVMRGPHSYTGEDVVELQCHGGQLAVRRVLEQALQAGARLAEPGEFTRRAFLNGRLDLSQAEAVVDLIRAKTDRAMAAAVAHLGGSLRQAVGRIRERLMEMMAHLEADIDFPELELEVQTREEVAAGCGWCLGEVERLLGGARTGRILREGLRAVLAGRPNVGKSSLLNRLVRENRAIVTPIPGTTRDVIAEWVELGGVPVQLFDTAGLRPTDDPVERIGVARTHEALAQAHLVLVVVDAAAGLGPEDREWISQLPQGAARVGVANKIDLNPAFELSALREALGGAPVVGVSAETGEGLDALEAEVARVAGAFDASEELLVNTRQAEAIRRARNHLRDAQATLESGLGDELVAIDLRAAWMALGEVTGETAGEELLDQIFSRFCIGK | soluble |
| MGERFYLYDDTVEAAVRFVSFVGERQRFDLALIETDRFYGKWLVLDLQSNRFAILGRDDLEEPGYIEHAYQLHEQDANDLRAFLEEYLS | not soluble |
| MGEVLHIEDALNEKGVYVSTTSGVSMYPMLRNRRDTIIVKPPTAPLKKYDVPLYRRGDDYVLHRIIGKDDRGYIICGDNCINKEYGITENQIIGVLVGFYRDGNEVNMEGVGYKLYSRAWVFLHPLICAFKKIKMKAGKVKRLWHSK | not soluble |
| MGFAPVTPAAVETYDPDVDHDDESNGLDGFRVRSKRSGKFSGGYSDSPREVGDGYGVRSRARSNMKMYGGFKSEFDSDHDSGSGFGLKRKYNGNPKVSADFDADSDDEIVLVPKATRLRTHGKPSSGDFSHGSGGGFPLKSFGDRNFASHGFKPKNFSKPEPNFSQDLDYDDEFDDDRAEREGFNPRIQSSRSSSRVNGYSRKDGSYPRNTGASNGYGSSSRFKHEQMNAAAEVESDPIDEVVSSVKMLTEMFVRVENSKMEMMREMEKSRMEMELKHCQMMLESQQQIIGAFAEALSEKKSTNARRPVS | not soluble |
| MGFFSGQFSNVVEWEEFREDMIFWKWHNREIKRGSKLIIRPGQDAIFLFNGRIEGIFKDEGDYDIESQIIPFLSTLQGFKFGFNSGMRAEVLFVNTKEFTAKWGTKSAINIPTPQLPGGIPIRANGTFTFKVNDYVKLIDRIAGVKDSFLVEDVRLRIMALLDQLMMKWIVQEGRDMFNLQSNSFAIADGLKTDLDMQIYDMGITVSQLTIMSFTYPEEIQQMIAKAASHTMIGDMGRYQQVSVLDGIAGGKGQGGSAAADMAGMAIGMQMANEMIKGVTSPQREQTQGRGSHAPQGGSEPGLIKPNFCPNCGQKTDGANFCSNCGQKLVLEHHHHHH | soluble |
| MGFFSRDIQTMEDLLLHGLRDIYYAEQQITKALPKMIEQATNRDLSQGLTSHLEETQKQIERLDQVFKKLGQKPSGVNCPAIDGLIKEADETAGEIADKTVLDAAIVANAQAVEHYEIARYGTLIAWAEELGHDDIVRFLTTNLNEEKAANTKLNTVALRKGVNRKAAS | soluble |
| MGFKCGIVGLPNVGKSTLFNALTKAGIEAANFPFCTIEPNTGVVPMPDPRLDQLAEIVKPQRTLPTTMEFVDIAGLVKGASKGEGLGNQFLTNIRETEAIGHVVRCFENDNIIHVSGKVNPADDIEVINTELALADLDTCERAIHRVQKKAKGGDKDAKAELAVLEKCLPQLENAGMLRALDLSAEEKAAIRYLSFLTLKPTMYIANVNEDGFENNPYLDQVREIAAKEGSVVVPVCAAVEADIAELDDEERDEFMQELGLEEPGLNRVIRAGYKLLNLQTYFTAGVKEVRAWTIPVGATAPQAAGKIHTDFEKGFIRAQTISFEDFITYKGEQGAKEAGKMRAEGKDYIVKDGDVMNFLFNV | soluble |
| MGFYQGPDNRKITGGLKGKHRDKRKYEIGNPPTFTTLSAEDIRIKDRTLGGNFKVRLKYTTTANVLDPATNTAKKVKILEILETPANKELARRGIIIRGAKIRTEAGLAVVTSRPGQDGVINAVLLKNESQRS | soluble |
| MGFYQGPDNRKITGGLKGKHRDKRKYEIGNPPTFTTLSAEDIRIKDRTLGGNFKVRLKYTTTANVLDPATNTAKKVKILEILETPANKELARRGIIIRGAKIRTEAGLAVVTSRPGQDGVINAVLLKNESQRSLEHHHHHH | not soluble |
